Data on three molecules can be found in patent publication US20150361176A1 (GlaxoSmithKline, published 2015).

Changes are numbered by the printed parent chain. In names and notes the source's numbering stands. Several values for one entry are separate records, joined by “and”; a condition that tells them apart may be missing. Identical values can stand only once.

The target of assay [1] is T1, recombinant human TGF-β RII/Fc chimera protein (human, UniProt P37173 24-159).
T1 construct: range 24-159; Made in HEK-F cells; Biotinylated where it was put on SA chips, otherwise captured by anti-human IgG; also called human TGFbRII/Fc; hRII-Fc; not shown: Fc region of human IgG1
The experiment in a line: SPR Biacore T100, human TGFbRII-FC, 1:1 model. As for the experimental part: Triplet or doped libraries in separate CDR1, CDR2 and CDR3 pools were subjected to rounds of phage selection as described above against either biotinylated human TGF-β RII/Fc antigen over 4 rounds in concentrations of 10 nM, 1 nM, 100 pM and 20 pM respectively, or two rounds of selection using 20 pM followed by 2 pM antigen. Inserts from phage selections were cloned into the pDOM10 expression vector and supernatants with off rates improved over parent were selected for further study. Domain antibodies were expressed and purified their affinity and bioactivity against human TGF-β RII/Fc antigen tested on the BIACORE™ T100 and in the Cell sensor assay described above (data not shown).
BIACORE™ analysis was carried out using a capture surface on a CM4 chip. Anti-human IgG was used as the capturing agent and coupled to a CM4 biosensor chip by primary amine coupling. The Antigen molecule fused to the human Fc was captured on this immobilised surface to a level from 250 to 300 resonance units and defined concentrations of Domain antibodies diluted in running buffer were passed over this captured surface. An injection of buffer over the captured antigen surface was used for double referencing. […] All runs were carried out at 25° C. using HBS-EP buffer as running buffer. Data were generated using the BIACORE™ T100 and fitted to the 1:1 binding model inherent to the software.
In general terms: SPR reads the build-up and loss of mass on a sensor chip optically.

Assay [2] concerns the target T1, recombinant human TGF-β RII/Fc chimera …. The experiment in a line: SPR Biacore, human TGFbRII-FC, 1:1 model (poor fit, ranking only).
Assay [3] shares this target. The experiment in a line: SPR Biacore.
Assay [4] concerns the target T2, recombinant mouse TGF-β RII/Fc chimera protein (mouse; human, UniProt Q62312-1 24-184).
T2 construct: Residue limits are printed only for the human receptor; also called mouse TGFbRII-Fc; mRII-Fc; not shown: Fc region; the assays speak of antigen fused to the human Fc
T2 sequence (looked up): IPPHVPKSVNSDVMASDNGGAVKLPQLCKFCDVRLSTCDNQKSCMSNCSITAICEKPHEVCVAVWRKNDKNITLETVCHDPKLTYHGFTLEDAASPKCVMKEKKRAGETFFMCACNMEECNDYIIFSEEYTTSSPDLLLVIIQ
The experiment in a line: SPR Biacore.

In another assay the target is T3, cynomolgus TGF-β RII/Fc (cynomolgus).
T3 construct: extracellular domain; also called Cyno TGFBRII; Cyno TGFbRII
The experiment in a line: SPR Biacore.

Assay [5] addresses human TGF-βRII on cells (SBE-bla HEK 293T cells; A549 cells) (human, UniProt P37173 23-567). In words: cell-based or functional assay.
Assay [6] deals with T4, mouse TGF-βRII on MC3T3-E1 cells (mouse osteoblasts) (mouse, UniProt Q62312 24-567).
T4 sequence (looked up): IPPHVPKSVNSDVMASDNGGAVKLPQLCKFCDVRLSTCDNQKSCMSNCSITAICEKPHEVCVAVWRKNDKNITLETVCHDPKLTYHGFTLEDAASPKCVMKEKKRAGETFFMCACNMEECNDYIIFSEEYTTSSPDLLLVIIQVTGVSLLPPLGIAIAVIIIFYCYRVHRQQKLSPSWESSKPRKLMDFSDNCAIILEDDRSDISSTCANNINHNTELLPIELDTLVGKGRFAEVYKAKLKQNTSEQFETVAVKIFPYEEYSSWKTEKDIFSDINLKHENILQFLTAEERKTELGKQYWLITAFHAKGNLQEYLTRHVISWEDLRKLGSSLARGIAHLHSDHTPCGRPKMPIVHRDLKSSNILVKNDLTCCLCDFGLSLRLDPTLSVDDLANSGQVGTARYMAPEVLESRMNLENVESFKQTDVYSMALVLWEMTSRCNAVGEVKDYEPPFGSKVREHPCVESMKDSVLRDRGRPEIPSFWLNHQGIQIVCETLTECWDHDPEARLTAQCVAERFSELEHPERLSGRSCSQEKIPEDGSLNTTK
The experiment in a line: cell-based or functional assay.

T1 sequence (P37173 24-159 limits assumed, change not shown): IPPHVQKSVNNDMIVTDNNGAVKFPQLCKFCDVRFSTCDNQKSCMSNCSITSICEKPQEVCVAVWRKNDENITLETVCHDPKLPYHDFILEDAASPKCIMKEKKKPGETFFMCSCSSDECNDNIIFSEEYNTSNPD
human TGF-βRII on cells (SBE-bla HEK 293T cells; A549 cells), sequence (P37173 23-567): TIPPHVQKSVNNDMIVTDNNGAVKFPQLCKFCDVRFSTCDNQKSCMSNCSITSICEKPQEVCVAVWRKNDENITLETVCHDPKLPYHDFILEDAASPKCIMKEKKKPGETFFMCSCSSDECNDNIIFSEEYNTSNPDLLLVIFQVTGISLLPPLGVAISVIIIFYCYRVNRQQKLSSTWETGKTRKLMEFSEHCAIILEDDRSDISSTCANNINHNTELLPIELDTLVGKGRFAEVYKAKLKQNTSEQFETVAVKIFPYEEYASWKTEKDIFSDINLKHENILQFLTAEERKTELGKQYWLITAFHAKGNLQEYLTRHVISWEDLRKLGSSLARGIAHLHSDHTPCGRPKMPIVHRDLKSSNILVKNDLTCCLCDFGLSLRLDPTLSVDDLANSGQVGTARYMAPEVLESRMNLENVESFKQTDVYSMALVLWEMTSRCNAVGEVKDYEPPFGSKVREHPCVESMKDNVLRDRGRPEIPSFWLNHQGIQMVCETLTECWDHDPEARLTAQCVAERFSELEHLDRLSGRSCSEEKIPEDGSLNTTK

B1: DOM23h-271-7 (VHH)
VHH: EVQLLESGGGLVQPGGSLRLSCAASGFTFTEYRMWWVRQAPGKGLEWVSAIEPIGNRTYYADSVKGRFTISRDNSKNTLYLQMNSLRAEDTAVYYCAKQIPGRKWTANSRFDYWGQGTLVTVSS
notes: human VH dAb; also called 271-7a; 271-7b
Take B1: in assay [1], the Kd was 13.8 nM and 18.4 nM; the koff was 0.0419 s⁻¹ and 0.0445 s⁻¹; the kon was 3.04e+06 M⁻¹ s⁻¹ and 2.42e+06 M⁻¹ s⁻¹. Besides, in assay [2], the equilibrium dissociation constant (Kd) was found to be 9.49 nM, the off-rate constant (koff) amounted to 0.051 s⁻¹ and the kon was 5.37e+06 M⁻¹ s⁻¹.

B2: DOM23h-271-39 (VHH)
VHH: B1 VHH with D62R, K65D, I100M, R103Q, T106M, N108K
notes: human VH dAb; also called DOM23h-271-22 plus D61R K64D; RD
Turning to B2, the Kd in assay [3] amounted to 0.0149 nM; in assay [4], 1.78 nM; in the assay with cynomolgus TGF-β RII/Fc it was 0.024 nM. Also, the “Human Cell sensor IC50” value in assay [5] was 1.17 nM. The “Mouse 3T3 Luciferase assay IC50” value in assay [6] was found to be 11100 nM.

B3: DOM23h-271-40 (VHH)
VHH: B1 VHH with D62R, K65F, I100M, R103Q, T106M, N108K
notes: human VH dAb; also called DOM23h-271-22 plus D61R K64F; RF
As to B3, the results for the equilibrium dissociation constant (Kd) (in assay [3]; in assay [4]; in the assay with cynomolgus TGF-β RII/Fc) were 0.00999 nM, 0.548 nM and 0.0112 nM, respectively. Moreover, the “Human Cell sensor IC50” value in assay [5] worked out at 0.53 nM. Also, the “Mouse 3T3 Luciferase assay IC50” value in assay [6] was 1200 nM.

A word on the Kd: it is a measure of binding affinity in units of concentration. In general, koff refers to the first-order rate constant of dissociation. What is called kon is a measure of how fast the partners come together.
